For 27 molecules, ratio to parent and percent reduction of binding relative to wild type results are on record in publication PMC8010706.

To fix the notation:
T1: MBP-Sbh1 full length, P52870
T1 chain: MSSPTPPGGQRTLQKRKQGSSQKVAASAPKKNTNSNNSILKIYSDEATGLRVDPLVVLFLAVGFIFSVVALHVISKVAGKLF

B1: His-tagged ySgt2-C (ySgt2 222-346), Q12118 M315D (protein)
chain: SLNLEKTVPEQSRDADVDASQGASAGGLPDLGSLLGGGLGGLMNNPQLMQAAQKMMSNPGAMQNIQKMMQDPSIRQMAEGFASGGGTPNLSDLDNNPALRNMAGNLFGGAGAQSTDETPDNENKQ
B2: His-tagged ySgt2-C (ySgt2 222-346), Q12118 M323D (protein)
chain: SLNLEKTVPEQSRDADVDASQGASAGGLPDLGSLLGGGLGGLMNNPQLMQAAQKMMSNPGAMQNIQKMMQDPSIRQMAEGFASGGGTPNLSDLMNNPALRNDAGNLFGGAGAQSTDETPDNENKQ
B3: His-tagged ySgt2-C (ySgt2 222-346), Q12118 M277D (protein)
chain: SLNLEKTVPEQSRDADVDASQGASAGGLPDLGSLLGGGLGGLMNNPQLMQAAQKMDSNPGAMQNIQKMMQDPSIRQMAEGFASGGGTPNLSDLMNNPALRNMAGNLFGGAGAQSTDETPDNENKQ
B4: His-tagged ySgt2-C (ySgt2 222-346), Q12118 L320D (protein)
chain: SLNLEKTVPEQSRDADVDASQGASAGGLPDLGSLLGGGLGGLMNNPQLMQAAQKMMSNPGAMQNIQKMMQDPSIRQMAEGFASGGGTPNLSDLMNNPADRNMAGNLFGGAGAQSTDETPDNENKQ
B5: His-tagged ySgt2-C (ySgt2 222-346), Q12118 L327D (protein)
chain: SLNLEKTVPEQSRDADVDASQGASAGGLPDLGSLLGGGLGGLMNNPQLMQAAQKMMSNPGAMQNIQKMMQDPSIRQMAEGFASGGGTPNLSDLMNNPALRNMAGNDFGGAGAQSTDETPDNENKQ
B6: His-tagged ySgt2-C (ySgt2 222-346), Q12118 I286D (protein)
chain: SLNLEKTVPEQSRDADVDASQGASAGGLPDLGSLLGGGLGGLMNNPQLMQAAQKMMSNPGAMQNDQKMMQDPSIRQMAEGFASGGGTPNLSDLMNNPALRNMAGNLFGGAGAQSTDETPDNENKQ
B7: His-tagged ySgt2-C (ySgt2 222-346), Q12118 I295D (protein)
chain: SLNLEKTVPEQSRDADVDASQGASAGGLPDLGSLLGGGLGGLMNNPQLMQAAQKMMSNPGAMQNIQKMMQDPSDRQMAEGFASGGGTPNLSDLMNNPALRNMAGNLFGGAGAQSTDETPDNENKQ
B8: His-tagged ySgt2-C (ySgt2 222-346), Q12118 M290D (protein)
chain: SLNLEKTVPEQSRDADVDASQGASAGGLPDLGSLLGGGLGGLMNNPQLMQAAQKMMSNPGAMQNIQKMDQDPSIRQMAEGFASGGGTPNLSDLMNNPALRNMAGNLFGGAGAQSTDETPDNENKQ
B9: His-tagged hSgt2-C (hSgt2 213-313), O43765 L224D; F280D (protein)
chain: TGGVGSFDIAGDLNNPGFMSMASNLMNNPQIQQLMSGMISGGNNPLGTPGTSPSQNDLASLIQAGQQDAQQMQQQNPELIEQLRSQIRSRTPSASNDDQQE
B10: His-tagged hSgt2-C (hSgt2 213-313), O43765 L224D (protein)
chain: TGGVGSFDIAGDLNNPGFMSMASNLMNNPQIQQLMSGMISGGNNPLGTPGTSPSQNDLASLIQAGQQFAQQMQQQNPELIEQLRSQIRSRTPSASNDDQQE
B11: His-tagged hSgt2-C (hSgt2 213-313), O43765 L295D (protein)
chain: TGGVGSFDIAGLLNNPGFMSMASNLMNNPQIQQLMSGMISGGNNPLGTPGTSPSQNDLASLIQAGQQFAQQMQQQNPELIEQDRSQIRSRTPSASNDDQQE
B12: His-tagged hSgt2-C (hSgt2 213-313), O43765 F280D (protein)
chain: TGGVGSFDIAGLLNNPGFMSMASNLMNNPQIQQLMSGMISGGNNPLGTPGTSPSQNDLASLIQAGQQDAQQMQQQNPELIEQLRSQIRSRTPSASNDDQQE
B13: His-tagged hSgt2-C (hSgt2 213-313), O43765 M247D (protein)
chain: TGGVGSFDIAGLLNNPGFMSMASNLMNNPQIQQLDSGMISGGNNPLGTPGTSPSQNDLASLIQAGQQFAQQMQQQNPELIEQLRSQIRSRTPSASNDDQQE
B14: His-tagged hSgt2-C (hSgt2 213-313), O43765 M233D; L295D (protein)
chain: TGGVGSFDIAGLLNNPGFMSDASNLMNNPQIQQLMSGMISGGNNPLGTPGTSPSQNDLASLIQAGQQFAQQMQQQNPELIEQDRSQIRSRTPSASNDDQQE
B15: His-tagged hSgt2-C (hSgt2 213-313), O43765 M233D; F280D (protein)
chain: TGGVGSFDIAGLLNNPGFMSDASNLMNNPQIQQLMSGMISGGNNPLGTPGTSPSQNDLASLIQAGQQDAQQMQQQNPELIEQLRSQIRSRTPSASNDDQQE
B16: His-tagged hSgt2-C (hSgt2 213-313), O43765 L224D; L295D (protein)
chain: TGGVGSFDIAGDLNNPGFMSMASNLMNNPQIQQLMSGMISGGNNPLGTPGTSPSQNDLASLIQAGQQFAQQMQQQNPELIEQDRSQIRSRTPSASNDDQQE
B17: MBP-Sbh1 full length (natural protein)
chain: MSSPTPPGGQRTLQKRKQGSSQKVAASAPKKNTNSNNSILKIYSDEATGLRVDPLVVLFLAVGFIFSVVALHVISKVAGKLF

The first test addresses MBP-Sbh1 full length (UniProt P52870). The test is described as follows: pull-down (Ni-NTA capture after coexpression, Coomassie quantification). The settings on record: experiments performed 3 to 4 times; parent: 1.
With “His-tagged ySgt2-C (ySgt2 222-346) (from UniProt Q12118) H5A”, the ratio to parent was 0.32.

As to “His-tagged hSgt2-C (hSgt2 213-313) (from UniProt O43765) H5A”, the ratio to parent was 0.67.

For “His-tagged ySgt2-C (ySgt2 222-346) (from UniProt Q12118) H1A”, the ratio to parent worked out at 0.03.

As for “His-tagged ySgt2-C (ySgt2 222-346) (from UniProt Q12118) H2A”, the ratio to parent stood at 0.1.

Consider “His-tagged hSgt2-C (hSgt2 213-313) (from UniProt O43765) H2/3A”, for which the ratio to parent is 0.27.

In the case of “His-tagged hSgt2-C (hSgt2 213-313) (from UniProt O43765) H4A”, the ratio to parent was 0.55.

Turning to “His-tagged ySgt2-C (ySgt2 222-346) (from UniProt Q12118) H3A”, the ratio to parent is 0.19.

On to “His-tagged hSgt2-C (hSgt2 213-313) (from UniProt O43765) H0A”, for which the ratio to parent was 0.63.

For “His-tagged ySgt2-C (ySgt2 222-346) (from UniProt Q12118) H4A”, the ratio to parent stood at 0.27.

For “His-tagged hSgt2-C (hSgt2 213-313) (from UniProt O43765) H1A”, the ratio to parent came to 0.21.

In a further test the target is T1, MBP-Sbh1 full length, P52870. The test is described as above. The settings on record: chain shown with the change; capture assay repeated three times; parent: 1.
Turning to B1, the ratio to parent amounted to 0.34.

As to B2, the ratio to parent worked out at 0.29.

Take B3: the ratio to parent was determined as 0.14.

For the molecule B4, the ratio to parent was 0.23.

As for B5, the ratio to parent was 0.4.

As for B6, the ratio to parent is 0.13.

B7: the ratio to parent was determined as 0.21.

On to B8, for which the ratio to parent is 0.18.

Turning to B9, the ratio to parent turned out to be 0.21.

For B10, the ratio to parent was 0.71.

On to B11, for which the ratio to parent is 0.86.

In the case of B12, the ratio to parent is 0.69.

With B13, the ratio to parent worked out at 0.68.

For the molecule B14, the ratio to parent worked out at 0.44.

As for B15, the ratio to parent turned out to be 0.59.

As for B16, the ratio to parent is 0.16.

The target in a further test is hSgt2 M233D (Homo sapiens) (UniProt O43765). The test is described as follows: pull-down; capture assay: His-tagged Sgt2 construct coexpressed with MBP-Sbh1 in E. coli; lysate incubated in batch with Ni-NTA resin at 4 °C for 1 h, washed with 20 mM Tris, 150 mM NaCl, 25 mM imidazole, 10 mM BME, pH 7.5, eluted with 300 mM imidazole; Coomassie-stained gel, MBP-Sbh1/Sgt2 ratio normalised to wild type.
Settings: not given
Turning to B17, the percent reduction of binding relative to wild type came out at 36%.
